Test results as given in patent US20200087373A1 (UNIVERSITY OF COPENHAGEN, published 2020).
Ends that are not written are not given here. * marks the point of attachment. C16 diacid = O=C(O)CCCCCCCCCCCCCCC(=O)*

T1: human GIP receptor (human, UniProt P48546 22-466)
T1 sequence (looked up): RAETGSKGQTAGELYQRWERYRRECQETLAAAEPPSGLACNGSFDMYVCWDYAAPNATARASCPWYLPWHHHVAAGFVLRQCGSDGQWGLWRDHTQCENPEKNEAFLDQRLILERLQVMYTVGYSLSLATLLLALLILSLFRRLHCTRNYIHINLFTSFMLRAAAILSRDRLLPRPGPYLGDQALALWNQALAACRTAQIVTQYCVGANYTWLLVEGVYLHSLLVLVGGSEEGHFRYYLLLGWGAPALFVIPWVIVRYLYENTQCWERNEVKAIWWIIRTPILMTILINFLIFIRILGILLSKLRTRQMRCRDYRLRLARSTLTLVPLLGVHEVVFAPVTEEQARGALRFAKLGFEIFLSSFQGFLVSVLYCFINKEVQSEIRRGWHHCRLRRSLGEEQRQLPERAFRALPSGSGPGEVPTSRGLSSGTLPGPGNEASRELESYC

B1: AT302 [hGIP(3-30)NH2[S11K]-C16diacid/11] (peptide)
peptide: EGTFISDYK(C16 diacid)IAMDKIHQQDFVNWLLAQK-NH2
modifications: N-terminus assumed
SMILES: CC[C@H](C)[C@H](NC(=O)[C@H](CCCCNC(=O)CCCCCCCCCCCCCCC(=O)O)NC(=O)[C@H](Cc1ccc(O)cc1)NC(=O)[C@H](CC(=O)O)NC(=O)[C@H](CO)NC(=O)[C@@H](NC(=O)[C@H](Cc1ccccc1)NC(=O)[C@@H](NC(=O)CNC(=O)[C@@H](N)CCC(=O)O)[C@@H](C)O)[C@@H](C)CC)C(=O)N[C@@H](C)C(=O)N[C@@H](CCSC)C(=O)N[C@@H](CC(=O)O)C(=O)N[C@@H](CCCCN)C(=O)N[C@H](C(=O)N[C@@H](Cc1c[nH]cn1)C(=O)N[C@@H](CCC(N)=O)C(=O)N[C@@H](CCC(N)=O)C(=O)N[C@@H](CC(=O)O)C(=O)N[C@@H](Cc1ccccc1)C(=O)N[C@H](C(=O)N[C@@H](CC(N)=O)C(=O)N[C@@H](Cc1c[nH]c2ccccc12)C(=O)N[C@@H](CC(C)C)C(=O)N[C@@H](CC(C)C)C(=O)N[C@@H](C)C(=O)N[C@@H](CCC(N)=O)C(=O)N[C@@H](CCCCN)C(N)=O)C(C)C)[C@@H](C)CC
B2: AT303 [hGIP(3-30)NH2[I12K]-C16diacid/12] (peptide)
peptide: EGTFISDYSK(C16 diacid)AMDKIHQQDFVNWLLAQK-NH2
modifications: N-terminus assumed
SMILES: CC[C@H](C)[C@H](NC(=O)[C@H](CCCCN)NC(=O)[C@H](CC(=O)O)NC(=O)[C@H](CCSC)NC(=O)[C@H](C)NC(=O)[C@H](CCCCNC(=O)CCCCCCCCCCCCCCC(=O)O)NC(=O)[C@H](CO)NC(=O)[C@H](Cc1ccc(O)cc1)NC(=O)[C@H](CC(=O)O)NC(=O)[C@H](CO)NC(=O)[C@@H](NC(=O)[C@H](Cc1ccccc1)NC(=O)[C@@H](NC(=O)CNC(=O)[C@@H](N)CCC(=O)O)[C@@H](C)O)[C@@H](C)CC)C(=O)N[C@@H](Cc1c[nH]cn1)C(=O)N[C@@H](CCC(N)=O)C(=O)N[C@@H](CCC(N)=O)C(=O)N[C@@H](CC(=O)O)C(=O)N[C@@H](Cc1ccccc1)C(=O)N[C@H](C(=O)N[C@@H](CC(N)=O)C(=O)N[C@@H](Cc1c[nH]c2ccccc12)C(=O)N[C@@H](CC(C)C)C(=O)N[C@@H](CC(C)C)C(=O)N[C@@H](C)C(=O)N[C@@H](CCC(N)=O)C(=O)N[C@@H](CCCCN)C(N)=O)C(C)C
B3: AT304 [hGIP(3-30)NH2[A13K]-C16diacid/13] (peptide)
peptide: EGTFISDYSIK(C16 diacid)MDKIHQQDFVNWLLAQK-NH2
modifications: N-terminus assumed
SMILES: CC[C@H](C)[C@H](NC(=O)[C@H](CCCCN)NC(=O)[C@H](CC(=O)O)NC(=O)[C@H](CCSC)NC(=O)[C@H](CCCCNC(=O)CCCCCCCCCCCCCCC(=O)O)NC(=O)[C@@H](NC(=O)[C@H](CO)NC(=O)[C@H](Cc1ccc(O)cc1)NC(=O)[C@H](CC(=O)O)NC(=O)[C@H](CO)NC(=O)[C@@H](NC(=O)[C@H](Cc1ccccc1)NC(=O)[C@@H](NC(=O)CNC(=O)[C@@H](N)CCC(=O)O)[C@@H](C)O)[C@@H](C)CC)[C@@H](C)CC)C(=O)N[C@@H](Cc1c[nH]cn1)C(=O)N[C@@H](CCC(N)=O)C(=O)N[C@@H](CCC(N)=O)C(=O)N[C@@H](CC(=O)O)C(=O)N[C@@H](Cc1ccccc1)C(=O)N[C@H](C(=O)N[C@@H](CC(N)=O)C(=O)N[C@@H](Cc1c[nH]c2ccccc12)C(=O)N[C@@H](CC(C)C)C(=O)N[C@@H](CC(C)C)C(=O)N[C@@H](C)C(=O)N[C@@H](CCC(N)=O)C(=O)N[C@@H](CCCCN)C(N)=O)C(C)C
B4: AT305 [hGIP(3-30)NH2[M14K]-C16diacid/14] (peptide)
peptide: EGTFISDYSIAK(C16 diacid)DKIHQQDFVNWLLAQK-NH2
modifications: N-terminus assumed
SMILES: CC[C@H](C)[C@H](NC(=O)[C@H](CO)NC(=O)[C@H](Cc1ccc(O)cc1)NC(=O)[C@H](CC(=O)O)NC(=O)[C@H](CO)NC(=O)[C@@H](NC(=O)[C@H](Cc1ccccc1)NC(=O)[C@@H](NC(=O)CNC(=O)[C@@H](N)CCC(=O)O)[C@@H](C)O)[C@@H](C)CC)C(=O)N[C@@H](C)C(=O)N[C@@H](CCCCNC(=O)CCCCCCCCCCCCCCC(=O)O)C(=O)N[C@@H](CC(=O)O)C(=O)N[C@@H](CCCCN)C(=O)N[C@H](C(=O)N[C@@H](Cc1c[nH]cn1)C(=O)N[C@@H](CCC(N)=O)C(=O)N[C@@H](CCC(N)=O)C(=O)N[C@@H](CC(=O)O)C(=O)N[C@@H](Cc1ccccc1)C(=O)N[C@H](C(=O)N[C@@H](CC(N)=O)C(=O)N[C@@H](Cc1c[nH]c2ccccc12)C(=O)N[C@@H](CC(C)C)C(=O)N[C@@H](CC(C)C)C(=O)N[C@@H](C)C(=O)N[C@@H](CCC(N)=O)C(=O)N[C@@H](CCCCN)C(N)=O)C(C)C)[C@@H](C)CC
B5: AT306 [hGIP(3-30)NH2[D15K]-C16diacid/15] (peptide)
peptide: EGTFISDYSIAMK(C16 diacid)KIHQQDFVNWLLAQK-NH2
modifications: N-terminus assumed
SMILES: CC[C@H](C)[C@H](NC(=O)[C@H](CO)NC(=O)[C@H](Cc1ccc(O)cc1)NC(=O)[C@H](CC(=O)O)NC(=O)[C@H](CO)NC(=O)[C@@H](NC(=O)[C@H](Cc1ccccc1)NC(=O)[C@@H](NC(=O)CNC(=O)[C@@H](N)CCC(=O)O)[C@@H](C)O)[C@@H](C)CC)C(=O)N[C@@H](C)C(=O)N[C@@H](CCSC)C(=O)N[C@@H](CCCCNC(=O)CCCCCCCCCCCCCCC(=O)O)C(=O)N[C@@H](CCCCN)C(=O)N[C@H](C(=O)N[C@@H](Cc1c[nH]cn1)C(=O)N[C@@H](CCC(N)=O)C(=O)N[C@@H](CCC(N)=O)C(=O)N[C@@H](CC(=O)O)C(=O)N[C@@H](Cc1ccccc1)C(=O)N[C@H](C(=O)N[C@@H](CC(N)=O)C(=O)N[C@@H](Cc1c[nH]c2ccccc12)C(=O)N[C@@H](CC(C)C)C(=O)N[C@@H](CC(C)C)C(=O)N[C@@H](C)C(=O)N[C@@H](CCC(N)=O)C(=O)N[C@@H](CCCCN)C(N)=O)C(C)C)[C@@H](C)CC
B6: AT307 [hGIP(3-30)NH2[I17K]-C16diacid/17] (peptide)
peptide: EGTFISDYSIAMDKK(C16 diacid)HQQDFVNWLLAQK-NH2
modifications: N-terminus assumed
SMILES: CC[C@H](C)[C@H](NC(=O)[C@H](CO)NC(=O)[C@H](Cc1ccc(O)cc1)NC(=O)[C@H](CC(=O)O)NC(=O)[C@H](CO)NC(=O)[C@@H](NC(=O)[C@H](Cc1ccccc1)NC(=O)[C@@H](NC(=O)CNC(=O)[C@@H](N)CCC(=O)O)[C@@H](C)O)[C@@H](C)CC)C(=O)N[C@@H](C)C(=O)N[C@@H](CCSC)C(=O)N[C@@H](CC(=O)O)C(=O)N[C@@H](CCCCN)C(=O)N[C@@H](CCCCNC(=O)CCCCCCCCCCCCCCC(=O)O)C(=O)N[C@@H](Cc1c[nH]cn1)C(=O)N[C@@H](CCC(N)=O)C(=O)N[C@@H](CCC(N)=O)C(=O)N[C@@H](CC(=O)O)C(=O)N[C@@H](Cc1ccccc1)C(=O)N[C@H](C(=O)N[C@@H](CC(N)=O)C(=O)N[C@@H](Cc1c[nH]c2ccccc12)C(=O)N[C@@H](CC(C)C)C(=O)N[C@@H](CC(C)C)C(=O)N[C@@H](C)C(=O)N[C@@H](CCC(N)=O)C(=O)N[C@@H](CCCCN)C(N)=O)C(C)C
B7: AT308 [hGIP(3-30)NH2[Q19K]-C16diacid/19] (peptide)
peptide: EGTFISDYSIAMDKIHK(C16 diacid)QDFVNWLLAQK-NH2
modifications: N-terminus assumed
SMILES: CC[C@H](C)[C@H](NC(=O)[C@H](CO)NC(=O)[C@H](Cc1ccc(O)cc1)NC(=O)[C@H](CC(=O)O)NC(=O)[C@H](CO)NC(=O)[C@@H](NC(=O)[C@H](Cc1ccccc1)NC(=O)[C@@H](NC(=O)CNC(=O)[C@@H](N)CCC(=O)O)[C@@H](C)O)[C@@H](C)CC)C(=O)N[C@@H](C)C(=O)N[C@@H](CCSC)C(=O)N[C@@H](CC(=O)O)C(=O)N[C@@H](CCCCN)C(=O)N[C@H](C(=O)N[C@@H](Cc1c[nH]cn1)C(=O)N[C@@H](CCCCNC(=O)CCCCCCCCCCCCCCC(=O)O)C(=O)N[C@@H](CCC(N)=O)C(=O)N[C@@H](CC(=O)O)C(=O)N[C@@H](Cc1ccccc1)C(=O)N[C@H](C(=O)N[C@@H](CC(N)=O)C(=O)N[C@@H](Cc1c[nH]c2ccccc12)C(=O)N[C@@H](CC(C)C)C(=O)N[C@@H](CC(C)C)C(=O)N[C@@H](C)C(=O)N[C@@H](CCC(N)=O)C(=O)N[C@@H](CCCCN)C(N)=O)C(C)C)[C@@H](C)CC

Target: T1, human GIP receptor
Test: cell-based or functional assay

Binder	cAMP antagonism, log (IC50)	cAMP antagonism, nM (IC50)	cAMP agonism, EC50 (log)	cAMP agonism, Emax	cAMP agonism, nM (EC50)
B1	-7.2 log M	69 nM	–	–	–
B2	-7 log M	90 nM	-7.6 log M	24.2%	28 nM
B3	-6.7 log M	199 nM	–	–	–
B4	-6.8 log M	166 nM	-8.1 log M	12%	8 nM
B5	-7.3 log M	53 nM	-7.9 log M	6.6%	13 nM
EGTFISDYSIAMDK(C16 diacid)IHQQDFVNWLLAQK-NH2 [AT370 [hGIP(3-30)NH2-C16diacid/16]]	-7.6 log M	24.9 nM	–	–	–
B6	-7 log M	93 nM	-7.9 log M	4.9%	14 nM
B7	-6.9 log M	132 nM	-7.5 log M	7.9%	34 nM
